One may read the Kd as the equilibrium constant for the complex coming apart.

The experiment deals with SARS-CoV-2 antigen (nucleocapsid protein) (SARS-CoV-2; strain of the recombinant …, UniProt P0DTC9). The experiment can be described thus: ELISA.

B1: detection antibody against the SARS-CoV-2 antigen (antibody, V domains shown)
VH: EVQLVESGGGLVQPGGSLRLSCAASGFTFSTYAMSWVRQAPGKGLEWVSGITGSGGATDYADSVKGRFTISRDNSKNTLYLQMNSLRAEDTAVYYCARINYRAVWGMDYWGQGTLVTVSS
VL: DIQMTQSPSSLSASVGDRVTITCRASQNVSSYLAWYQQKPGKAPKLLIYGASNLASGVPSRFSGSGSGTDFTLTISSLQPEDFATYYCQQGANAPLTFGQGTKVETK
As to B1, the Kd was found to be 0.66 nM.

B2: reporter antibody against the SARS-CoV-2 antigen (antibody, V domains shown)
VH: EVQLVESGGGLVQPGGSLRLSCAASGFTFANNAMSWVRQAPGKGLEWVSGINGYDGDTYYADSVKGRFTISRDNSKNTLYLQMNSLRAEDTAVYYCARTYYSYAMDYWGQGTLVTVSS
VL: DIQMTQSPSSLSASVGDRVTITCRASQNISSYLAWYQQKPGKAPKLLIYWASNLASGVPSRFSGSGSGTDFTLTISSLQPEDFATYYCQQGAQIPLTFGQGTKVEIK
As for B2, the Kd turned out to be 0.69 nM.

For the origin of these results see paper PMC8770391 (Biosensors & Bioelectronics, 2022).
